The values that follow come from patent US10000775B2, “Biosynthesis of 1-undecene and related terminal olefins” (The Regents of the University of California, priority 2013, dated 2018).

A short description of series [1]: In vitro activity of PFL_4321 and PFL_0203 toward fatty acids with various chain lengths. The class given is biochemical. On the set-up: key to In vitro activity toward C8:0 / In vitro activity toward C10:0 / In vitro activity toward C12:0 / In vitro activity toward C14:0 / In vitro activity toward C16:0: ✓: indicates production of the corresponding 1-alkene from the indicated substrate; x: indicates failure to produce the corresponding 1-alkene from the indicated substrate. The protocol:
A typical condition is as follows: 1 mL of reaction mixture contains 50 mM MES buffer (pH 6.2), 300 mM NaCl, 100 μM (NH4)2Fe(SO4)2, 1 mM ascorbic acid, 100 μM fatty acid substrate or analogs, and 10 μM enzyme. The reaction was performed in a sealed headspace vial at 30° C., initiated by adding lauric acid and quenched by injecting equal volume of 5 M NaOH. 1-Undecene production was analyzed and quantified by using the SPME-GCMS method. To determine the kinetic parameters of PFL_4321 on lauric acid, initial velocities at 1, 10, 20, 50, 100, and 150 μM of lauric acid were measured (25 mM lauric acid solution was prepared by adding 0.5% tergitol and heating at 65° C. for 10 min). The reactions were quenched at 2, 4, 6, 8, and 10 seconds, and the acquired turnover rates were fit to the Michaelis-Menten equation using GraphPad Prism to obtain kcat and Km. The kcat and Km of myristic acid and capric acid were determined similarly.
Unless otherwise noted, all experiments with PFL_0203 as described herein were performed using similar assays, procedures, and techniques as used in a given corresponding experiment as described in Example 1.
The fatty acid substrate specificity of PFL_0203 was investigated in a series of in vitro experiments. […] Thus, PFL_4321 and PFL_0203 share some overlap in suitable substrates; PFL_4321 is able to act on C10-C14 fatty acid substrates, and PFL_0203 is able to act on C10-C16 fatty acid substrates.

The subject of series [2] is E. coli. The series is described as follows: 1-undecene production in E. coli overexpressing PFL_4321, PFL_0203 or homologs, with or without UcFatB2. Particulars: E. coli, one-day shake flask culture in LB media without exogenous lauric acid. The class given is cell-based. Here is the method: E. coli, P. aeruginosa PAO-1, and P. aeruginosa PA14 strains were grown in 5 mL of LB medium overnight at 37° C., while all the other Pseudomonas and Acinetobacter strains were grown at 30° C. […] The culture was shaken in a sealed 20 mL headspace vial (Agilent certified) containing a stir bar at 30° C. for 36 hr. After incubation, an SPME fiber (30 μm polydimethylsiloxane, Supelco, Sigma-Aldrich Group, Bellefonte, Pa.) was manually inserted into the headspace vial and incubated at 25° C. for 12.5 min. GC-MS analysis was conducted on a Varian CP-3800 instrument equipped with a Varian 320-MS. […] The signals of the 1-alkenes were identified and quantified by comparison with authentic samples (MP Biomedicals), which were diluted in ethyl acetate, added to 5 mL of culture medium in a sealed headspace vial, and sampled by the same SPME-GCMS method as described above.
[…] 1-Undecene production was detected by using the SPME-GCMS method. […]
To investigate whether PFL_0203 was facilitating the production of 1-undecene, this gene was individually expressed in E. coli and the cells were monitored for 1-undecene production. […]

The nature of series [3]: In vitro 1-undecene production by purified PFL_0203 with E. coli crude extract. The class given is biochemical. The note with it: purified PFL_0203 mixed with E. coli crude extract and exogenous lauric acid.

B1: PFL_0203: hypothetical membrane-associated protein from Pseudomonas fluorescens Pf-5 converting C10-C16 fatty acids into 1-alkenes (protein, listed as Pseudomonas protegens)
chain: MQGISASPERMNAQQRAAHVRQVVLARGDELRRRFPLLRHQDALGAGILAFALSGMLGSALLYVTGHLAWWACLLLNAFFASLTHELEHDLIHSMYFRKQRLPHNLMLGLVWLARPSTINPWVRRHLHLNHHKVSGSESDIEERAITNGEPWGIARLLMVGDNMMAAFIRLLRAPGARRKLGILVRTLAVYAPLALLHWGAWYVFLGFHGANGVAALLGSPIQWSQDTASLMHYVDIAVVVIIGPNVLRTFCLHFVSSNMHYYGDIEPGNVIQQTQVLNPWWMWPLQAFCCNFGSTHGIHHFVVREPFYIRQMTASVAHKVMAEMGVRFNDFGTFARANRFTRQEREAMQPAHNARA
For B1, the “activity on C8 or C18 fatty acids” value in series [1] (in vitro, C8 or C18 fatty acids) is given as “failed to act”. In series [1] (in vitro, C10-C16 fatty acids), the “conversion of C10-C16 fatty acids into their corresponding [M-1] 1-alkenes” value was “converted”. Also, the “In vitro activity toward C8:0” value in series [1] (substrate C8:0) is “x”. Also, in series [1] (substrate C10:0), the “In vitro activity toward C10:0” value is “trace”. In addition, the “In vitro activity toward C12:0” value in series [1] (substrate C12:0) is “✓”. Besides, the “In vitro activity toward C14:0” value in series [1] (substrate C14:0) is “✓”. Moreover, in series [1] (substrate C16:0), the “In vitro activity toward C16:0” value is given as “trace”. Moreover, the “titer of 1-undecene” value in series [2] was roughly 0.2 µg/mL. For the same molecule, the 1-undecene production result in series [3] is given as “resulted in 1-undecene production”.
